Biological target: the molecule itself
Experiment: native MS

B1: MacB, His-tagged, purified (natural protein, E. coli, UniProt P75831 1-648, looked up)
chain: MTPLLELKDIRRSYPAGDEQVEVLKGISLDIYAGEMVAIVGASGSGKSTLMNILGCLDKATSGTYRVAGQDVATLDADALAQLRREHFGFIFQRYHLLSHLTAEQNVEVPAVYAGLERKQRLLRAQELLQRLGLEDRTEYYPAQLSGGQQQRVSIARALMNGGQVILADEPTGALDSHSGEEVMAILHQLRDRGHTVIIVTHDPQVAAQAERVIEIRDGEIVRNPPAIEKVNVTGGTEPVVNTVSGWRQFVSGFNEALTMAWRALAANKMRTLLTMLGIIIGIASVVSIVVVGDAAKQMVLADIRSIGTNTIDVYPGKDFGDDDPQYQQALKYDDLIAIQKQPWVASATPAVSQNLRLRYNNVDVAASANGVSGDYFNVYGMTFSEGNTFNQEQLNGRAQVVVLDSNTRRQLFPHKADVVGEVILVGNMPARVIGVAEEKQSMFGSSKVLRVWLPYSTMSGRVMGQSWLNSITVRVKEGFDSAEAEQQLTRLLSLRHGKKDFFTWNMDGVLKTVEKTTRTLQLFLTLVAVISLVVGGIGVMNIMLVSVTERTREIGIRMAVGARASDVLQQFLIEAVLVCLVGGALGITLSLLIAFTLQLFLPGWEIGFSPLALLLAFLCSTVTGILFGWLPARNAARLDPVDALARE
B1 was tested. Which “stoichiometry N” value did it give?
The value was 2.

From PMC2613632 (The Journal of Biological Chemistry, 2009)
